Measured values reported in US20260231954A1, “PESTICIDAL ENZYMES FOR USE ON NEMATODES, INSECTS, AND MOLLUSKS” (priority 2023, published 2026).

Legend:
Type in all cases: in vivo
soybean [1] = test: Field trial: Geobacillus stearothermophilus esterase soybean seed treatment, yield; conditions: 0.5 fl oz/unit on soybean seed; 6 sites
Excerpt: 0.5 fl oz/unit of Esterase (carboxylesterase) from Geobacillus/Bacillus stearothermophilus (SEQ ID NO:252) was coated onto soybean seeds treated with Evergol Energy (prothioconazole, metalaxyl, and penflufen fungicides) at 1 fl oz/cwt, Alias 4F (imidacloprid, insecticide) at 1.25 fl oz/unit, Sensient Red (colorant) at 0.5 fl oz/cwt, and Seedwork 4037L polymer at 1.5 fl oz/cwt. A control treatment without esterase enzyme was also created. The seed treated with esterase and control seed was planted in replicated trials distributed across 6 replicated plots with 4 replicates of 60 ft2 each at each site.

[2] = system: Fall armyworm (Spodoptera frugiperda); test: Diet-surface overlay (DSO) bioassay on Fall armyworm; conditions: number of individuals, n = 32, 7 days
Protocol: Diet-surface overlay bioassays are conducted with artificial diet mixes without antibiotics in 1.5 cm^2 cell bioassay trays(s). Artificial diets are commercially available from Southland Products Inc. Diets were prepared by dispersing 0.5 mL of molten diet to each 1.5 cm^2 cell. After solidification, 0.1 mL enzyme treatments were dispersed on top of diet in each cell and the tray was gently rocked in an orbital shaker to spread the liquid uniformly over the diet surface. Trays were placed under clean airflow until the surface of each cell was uniformly dried. One or two 16-cell sections were used per treatment (the number in larvae treated was 16 or 32).
One healthy first instar larva was placed into each treatment cell, each 16-cell section was covered with a re-sealable lid and incubated at 27° C. and light-dark period of 16:8 hrs. After 7 days, and according to the species, the number of individuals in the following developmental categories was recorded.
Negative/untreated controls were treated with filtered water and positive controls were treated with lethal doses of Bacillus thuringiensis subsp. Kurstaki (Btk) spores at 1000 ppm.

[3] = system: Garden snails (Cornu aspersum); test: Antifeedant and molluscicide bioassay on garden snails (diet consumption, survival, weight gain)
Protocol: Two-week old garden snails (Cornu aspersum) and full-size black gloss snails (Zonitoides nitidus) were maintained in a semi-darkened tank at 68-70° F. at high humidity, provided with a wet sponge in a petri dish. Snails were transferred to fresh tank every 2-3 days, and they were feed ad libitum with cucumber slices supplemented with calcium carbonate tablets. Individuals were reared in the laboratory for at least a week to fully acclimate to laboratory conditions prior to testing. The individuals ranged between 3 weeks to 2 months old at the time of bioassay.
Filter-sterilized recombinant enzymes including proteases and lipases were prepared as indicated in Example 25. Corresponding controls (e.g., buffer, fermentation of non-recombinant strain, water) were be prepared accordingly. Enzymes were dried by mixing them with Polyvinylpyrrolidone K30 (Thermo Sci Chem, Cat #227545000) at a ratio of 60 mg PVP per mL of enzymes, dispersed on a petri dish and allowed to dry in a bio-safety hood for 24-48 hours.
The treatments were prepared by mixing 0.4 g of dry enzyme and 1 gram of artificial diet mix. The artificial diet mix consisted of flour supplemented with 30 mg sucrose per gram of flour. […]
12 snails were randomly assigned to each treatment, labeled with permanent marker on the top of the shell for identification, and their weight (mg) was recorded before treatment. […] At the time of treatment replacement, treatment consumption, weight, and mortality were recorded.
Acid protease, alkaline protease, aminopeptidase, neutral protease, and keratinase, were prepared as indicated above and their antifeedant and molluscicidal effects were tested. […] The units (U) of enzyme activity was determined as the amount of enzyme required to breakdown 1 μM of substrate per minute. […]
Lipases from Burkholderia cepacia, Pseudomonas fluorescens, porcine pancreas, type II (PPII) were prepared as described above and their antifeedant and molluscicidal effects were tested. […] The units (U) of enzyme activity was determined as the amount of enzyme required to breakdown 1 μM of substrate per minute. […]

corn [4] = test: Field trial: PytH Esterase corn seed treatment, yield; conditions: 0.5 fl oz/unit on hybrid corn seed; 10 sites
Excerpt: 0.5 fl oz/unit of PythH Esterase from recombinant Bacillus subtilis fermentation (SEQ ID NO:255) was coated onto Hybrid corn seeds treated with Fludioxinil fungicide, ipconazole fungicide, peridium 1006 polymer, and Sensient Red (colorant). A control treatment without esterase enzyme was also created. The seed treated with esterase and control seed was planted in replicated trials distributed across 10 replicated plots with 4 replicates of 100 ft2 each at each site.

soybean [5] = test: Field trial: Feruloyl Esterase soybean seed treatment, yield; conditions: 1 fl oz/unit on soybean seed; 5 sites
Excerpt: 1 fl oz/unit of Feruloyl Esterase (SEQ ID NO:91) was coated onto soybean seeds treated with Fludioxinil fungicide, metalaxyl fungicide, thiamethoxam […], Seedwork 1037L polymer, and Sensient Red (colorant). A control treatment without esterase enzyme was also created. The seed treated with esterase and control seed was planted in replicated trials distributed across 5 replicated plots with 4 replicates of 30 ft2 each at each site.

corn [6] = test: Greenhouse trial: Rhizopus oryzae Esterase corn seed treatment, plant height; conditions: 0.5 fl oz/unit seed treatment, 6049 V2 hybrid corn, plant height day 10, water control = 100%
Protocol: Rhizopus oryzae Esterase (carboxylesterase, SEQ ID NO:253) was coated onto 6049 V2 hybrid corn seeds. A water only control treatment without esterase enzyme was also created. The seed treated with esterase and control seed was planted in replicated greenhouse trials on promix soil with a fluctuating day/night temperature of 78° F./75° F., and 13 hours of light daily. Plant heights were measured on day 10 for each plant emerged from the soil.

B1: Geobacillus stearothermophilus esterase (SEQ ID NO:252): Esterase (carboxylesterase) from Geobacillus/Bacillus stearothermophilus (protein, listed as Bacillus stearothermophilus, listed as Geobacillus stearothermophilus)
chain: MKIVPPKPFFFEAGERAVLLLHGFTGNSADVRMLGRFLESKGYTCHAPIYKGHGVPPEELVHTGPDDWWQDVMNGYEFLKNKGYEKIAVAGLSLGGVFSLKLGYTVPIEGIVTMCAPMYIKSEETMYEGVLEYAREYKKREGKSEEQIEQEMEKFKQTPMKTLKALQELIADVRDHLDLIYAPTFVVQARHDEMINPDSANIIYNEIESPVKQIKWYEQSGHVITLDQEKDQLHEDIYAFLESLDW
yield vs base seed treatment package (in words) (soybean [1]): increased the yield

B2: PpII Lipase: free lipase from porcine pancreas Type II (PpII) (protein, UniProt P00591 1-450, looked up)
Pancreatic triacylglycerol …: SEVCFPRLGCFSDDAPWAGIVQRPLKILPWSPKDVDTRFLLYTNQNQNNYQELVADPSTITNSNFRMDRKTRFIIHGFIDKGEEDWLSNICKNLFKVESVNCICVDWKGGSRTGYTQASQNIRIVGAEVAYFVEVLKSSLGYSPSNVHVIGHSLGSHAAGEAGRRTNGTIERITGLDPAEPCFQGTPELVRLDPSDAKFVDVIHTDAAPIIPNLGFGMSQTVGHLDFFPNGGKQMPGCQKNILSQIVDIDGIWEGTRDFVACNHLRSYKYYADSILNPDGFAGFPCDSYNVFTANKCFPCPSEGCPQMGHYADRFPGKTNGVSQVFYLNTGDASNFARWRYKVSVTLSGKKVTGHILVSLFGNEGNSRQYEIYKGTLQPDNTHSDEFDSDVEVGDLQKVKFIWYNNNVINPTLPRVGASKITVERNDGKVYDFCSQETVREEVLLTLNPC
Dead Larva ([2]; Table 46, lipases): 0 | Larva Stage I ([2]; Table 46): 2 | Larva Stage II ([2]; Table 46): 5 | Larva Stage III ([2]; Table 46): 15 | Larva Stage IV ([2]; Table 46): 10 | Diet consumption ([3]; lipases, garden snail, n = 12, 12 days, dose per treatment in U/gr diet): 0.82 gr | Dead Snails ([3]; lipases, garden snail, number of n = 12, 12 days): 0 | food consumption (in words) ([3]; text to Table 62, lipases in artificial diet, n = 12, 12 days): consistent reduction in food consumption

B3: PytH esterase (SEQ ID NO:255): Sphingobium wenxiniae (PytH) Esterase from recombinant Bacillus subtilis fermentation (protein, listed as Sphingobium wenxiniae)
chain: MTVTDIILIHGALNRGACYDAVVPLLEARGYRVHAPDLTGHTPGDGGHLSVVDMEHYTRPVADILARAEGQSILLGHSLGGASISWLAQHHPDKVAGLIYLTAVLTAPGITPETFVLPGEPNRGTPHALDLIQPVDEGRGLQADFSRLERLREVFMGDYPGEGMPPAEQFIQTQSTVPFGTPNPMEGRALEIPRLYIEALDDVVIPIAVQRQMQKEFPGPVAVVSLPASHAPYYSMPERLAEAIADFADAPAEYRQTATKAGPDRPAGADGGRADRADLP
yield vs base seed treatment package (in words) (corn [4]): increased the yield

B4: Feruloyl Esterase (SEQ ID NO:91): Beauveria bassiana Feruloyl Esterase A2 (protein, listed as Beauveria bassiana)
chain: MLSLLGFLGFAALAAAAPVRDQAFIPRTLVNRSIYDKLALYAGYTQLSNTGICARPSVPGVLYQFVESKDTDTQVSIWKVDAYKEFVIAIPGTSSARDNETNFDFALVPYQADNVRCPSCRVHKGYQAAWRSVMKQVQGNLTNLLGIHPDYTVTLTGHSLGGGLVSIAFPTLRNGPYNVTQAYTYGQPRAGNGAFANYVDGISGASDKEAGIFYRVTHANDLIPKLPPGIFGYKHSRTEYWESKPSMDNAASTYRCYGQEPADCNRNATGIDSKVHVTYAGMNVTCNKS
modifications: Feruloyl Esterase A2
yield vs base seed treatment package (in words) (soybean [5]): increased the yield

B5: Esterase from Rhizopus oryzae: Rhizopus oryzae Esterase (carboxylesterase, SEQ ID NO:253) (protein, listed as Rhizopus oryzae)
chain: SDGGKVVAATTAQIQEFTKYAGIAATAYCRSVVPGNKWDCVQCQKWVPDGKIITTFTSLLSDTNGYVLRSDKQKTIYLVFRGTNSFRSAITDIVFNFSDYKPVKGAKVHAGFLSSYEQVVNDYFPVVQEQLTANPTYKVIVTGHSLGGAQALLAGMDLYQREPRLSPKNLSIFTVGGPRVGNPTFAYYVESTGIPFQRTAHKRDIVPHVPPQSFGFLHPGVESWIKSGTSNVQICTSEIETKDCSNSIVPFTSILDHLSYFDINEGSCL
modifications: Rhizopus cf. oryzae
Height as % of Control (corn [6]): 103.7% | Height as % of Control (corn [6]; listed as Rhizopus oryzae Esterase): increase the growth rate of corn
